Source: publication PMC4242836 (The Journal of Cell Biology, 2014)

Molecular target: T1, Snu13p (S. cerevisiae, UniProt P39990 1-126)
T1 sequence: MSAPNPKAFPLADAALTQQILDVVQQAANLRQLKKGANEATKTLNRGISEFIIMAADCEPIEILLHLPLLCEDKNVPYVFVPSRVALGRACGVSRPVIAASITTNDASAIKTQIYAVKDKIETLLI
Assay: crystal structure

B1: Rsa1_(238–290) (domain or fragment)
chain: TDEDVKKWREERKKMWLLKISNNKQKHMQEMGIKEDELKSQPSIFKESRKEKQ
  binding result: binds
